Assay results: US20190330277A1 (PIRBRIGHT INSTITUTE, published 2019)

Assays:
Assay in all cases: ELISA, variant from culture supernatant on Ni-NTA plate
[1] = target: T1, 391-2wt_F-SC_12R core
T1 construct: also called sc-v28
Protocol: (§1) Initial assessment of all constructs were performed using a 96-well microplate format for high throughput expression followed by an ELISA-based antigenic evaluation as described previously 17. […] Plasmid DNA and TrueFect-Max (United BioSystems, MD) were mixed and added to the growing cells, and the 96-well plate incubated at 37° C., 5% CO2. One day post transfection, enriched medium (high glucose DMEM plus 25% ultra-low IgG fetal bovine serum, 2× nonessential amino acids, 1× glutamine) was added to each well, and the 96-well plate was returned to the incubator for continuous culture.

[2] = target: T2, 391-2-site 0 hRSV DSCav1-BZGJ9 Long
T2 construct: also called sc-v9
Protocol: as §1

[3] = target: T3, 391-2-DS-Cav1-BZGJ9_gyc1
T3 construct: also called sc-v16
Protocol: as §1

[4] = target: T4, RB94 DS-Cav1 Long FdPL
T4 construct: also called sc-v31
Protocol: as §1

[5] = target: T5, RB94 site 0 hRSV DS-Cav1-BZGJ9 Long FdPL
T5 construct: also called sc-v6
Protocol: as §1

[6] = target: T6, 391-2-DS-Cav1-BZGJ9 Long S190V
T6 construct: also called sc-v23
Protocol: as §1

[7] = target: T7, 391-2-DS-Cav1-BZGJ9 Long
T7 construct: also called sc-v17
Protocol: as §1

[8] = target: T8, sc9-10_DS-CAV1_bRSV(RB94)_Fd_hp1_fp1_ig1
T8 construct: also called sc-v8
Protocol: as §1

[9] = target: T9, 391-2-DS-Cav1-IP-5
T9 construct: also called sc-v19
Protocol: as §1

[10] = target: T10, sc9-10_DS-CAV1_bRSV(RB94)_Fd_hp1_fp2_ig1
T10 construct: also called sc-v13
Protocol: as §1

[11] = target: T11, 391-2-DS-Cav1-IP-4
T11 construct: also called sc-v32
Protocol: as §1

[12] = target: T12, 391-2-DS-Cav1-sc9deleteFS 100C-361C
T12 construct: also called DS2-v29
Protocol: as §1

[13] = target: T13, 391-2-DS-Cav1_ S398C-S485C
T13 construct: also called DS2-v25
Protocol: as §1

[14] = target: 391-2-DS-Cav1_ I28C-G464C
Protocol: as §1

[15] = target: T14, RB94 hu/bov DS-CAV1 A149C-Y458C Long
T14 construct: also called DS2-v7
Protocol: as §1

[16] = target: T15, 391-2-DS-Cav1-sc9deleteFS 99C-362C
T15 construct: also called DS2-v16
Protocol: as §1

[17] = target: T16, 391-2-DS-Cav1_ sc9_I395C-A490C
T16 construct: also called DS2-v27
Protocol: as §1

[18] = target: T17, 391-2-DS-Cav1_ sc9_S398C-S485C
T17 construct: also called DS2-v23
Protocol: as §1

[19] = target: T18, RB94 sc9 DS-CAV1 A149C-Y458C L373R Long S190V
T18 construct: also called DS2-v30
Protocol: as §1

[20] = target: T19, RB94 sc9 DS-CAV1 A149C-Y458C L373R Long K226L
T19 construct: also called DS2-v24
Protocol: as §1

[21] = target: T20, RB94 sc9 DS-CAV1 A149C-Y458C L373R
T20 construct: also called DS2-v20
Protocol: as §1

[22] = target: T21, 391-2-DS-Cav1-sc9deleteFS 100C-362C
T21 construct: also called DS2-v21
Protocol: as §1

[23] = target: T22, RB94 dscav1T369C-T455C Long S190V
T22 construct: also called DS2-v18
Protocol: as §1

[24] = target: T23, 391-2-DS-Cav1-sc9deleteFS 99C-361C
T23 construct: also called DS2-v15
Protocol: as §1

[25] = target: T24, 391-2-DS-Cav1_ sc9_T449C-V459C
T24 construct: also called DS2-v31
Protocol: as §1

[26] = target: T25, 391-2-DS-Cav1_ sc9_S485C-A490C
T25 construct: also called DS2-v28
Protocol: as §1

[27] = target: T26, 391-2-DS-Cav1-sc9 100C-361C
T26 construct: also called DS2-v19
Protocol: as §1

[28] = target: T27, RB94 DS-CAV1 T369C-T455C Long
T27 construct: also called DS2-v32
Protocol: as §1

[29] = target: T28, 391-2-DS-Cav1-sc9deleteFS 98C-361C
T28 construct: also called DS2-v8
Protocol: as §1

[30] = target: T29, RB94 sc9 DS-CAV1 A149C-Y458C L373R Long
T29 construct: also called DS2-v22
Protocol: as §1

[31] = target: T30, RB94 sc9 DS-CAV1 N183GC-N428C L373R Long S190V
T30 construct: also called DS2-v13
Protocol: as §1

B1: D25 antibody (antibody, V domains shown)
VH: QVQLVQSGAEVKKPGSSVMVSCQASGGPLRNYIINWLRQAPGQGPEWMGGIIPVLGTVHYAPKFQGRVTITADESTDTAYIHLISLRSEDTAMYYCATETALVVSTTYLPHYFDNWGQGTLVTVSS
VL: DIQMTQSPSSLSAAVGDRVTITCQASQDIVNYLNWYQQKPGKAPKLLIYVASNLETGVPSRFSGSGSGTDFSLTISSLQPEDVATYYCQQYDNLPLTFGGGTKVEIK
notes: also called mAb D25
[1]
  ELISA binding value: 0.709
[2]
  ELISA binding value: 2.02
[3]
  ELISA binding value: 1.4
[4]
  ELISA binding value: 0.392
[5]
  ELISA binding value: 2.16
[6]
  ELISA binding value: 1.13
[7]
  ELISA binding value: 1.3
[8]
  ELISA binding value: 2.17
[9]
  ELISA binding value: 1.28
[10]
  ELISA binding value: 1.88
[11]
  ELISA binding value: 0.333
[12]
  ELISA binding value: 0.133
[13]
  ELISA binding value: 0.141
[14]
  ELISA binding value: 0.139
[15]
  ELISA binding value: 0.274
[16]
  ELISA binding value: 0.197
[17]
  ELISA binding value: 0.136
[18]
  ELISA binding value: 0.144
[19]
  ELISA binding value: 0.133
[20]
  ELISA binding value: 0.144
[21]
  ELISA binding value: 0.175
[22]
  ELISA binding value: 0.16
[23]
  ELISA binding value: 0.182
[24]
  ELISA binding value: 0.198
[25]
  ELISA binding value: 0.133
[26]
  ELISA binding value: 0.136
[27]
  ELISA binding value: 0.181
[28]
  ELISA binding value: 0.129
[29]
  ELISA binding value: 0.271
[30]
  ELISA binding value: 0.158
[31]
  ELISA binding value: 0.206

B2: MPE8 antibody (antibody, V domains shown)
VH: EVQLVESGGGLVKPGGSLRLSCAASGFTFSSYSMNWVRQAPGKGLEWVSSISASSSYSDYADSAKGRFTISRDNAKTSLFLQMNSLRAEDTAIYFCARARATGYSSITPYFDIWGQGTLVTVSS
VL: QSVVTQTPSVSGAPGQRVTISCTGSSSNIGAGYDVHWYQQLPGTAPKLLIYDNNNRPSGVPDRFSASKSGTSASLAITGLQAEDEADYYCQSYDRNLSGVFGTGTKVTVL
notes: also called mAb MPE8
[1]
  ELISA binding value: 0.646
[2]
  ELISA binding value: 2.08
[3]
  ELISA binding value: 1.55
[4]
  ELISA binding value: 0.489
[5]
  ELISA binding value: 2.2
[6]
  ELISA binding value: 1.19
[7]
  ELISA binding value: 1.45
[8]
  ELISA binding value: 2.16
[9]
  ELISA binding value: 1.41
[10]
  ELISA binding value: 1.81
[11]
  ELISA binding value: 0.541
[12]
  ELISA binding value: 0.0592
[13]
  ELISA binding value: 0.0824
[14]
  ELISA binding value: 0.0815
[15]
  ELISA binding value: 0.29
[16]
  ELISA binding value: 0.2
[17]
  ELISA binding value: 0.0919
[18]
  ELISA binding value: 0.0849
[19]
  ELISA binding value: 0.0477
[20]
  ELISA binding value: 0.0872
[21]
  ELISA binding value: 0.154
[22]
  ELISA binding value: 0.0757
[23]
  ELISA binding value: 0.371
[24]
  ELISA binding value: 0.229
[25]
  ELISA binding value: 0.1
[26]
  ELISA binding value: 0.0579
[27]
  ELISA binding value: 0.173
[28]
  ELISA binding value: 0.0667
[29]
  ELISA binding value: 0.43
[30]
  ELISA binding value: 0.0692
[31]
  ELISA binding value: 0.155
